Tested on: Roquin-1 (aa 2-441);NUFIP2 (aa 255-411) (mouse;human)
Assay: EMSA
Details: 10 mM HEPES pH 7.5, 150 mM NaCl, 2 mM MgCl2, 4% glycerol, tRNA 30 ug/mL, 5 nM labeled RNA, 30 min at 25 °C; native 4% TBE PAGE

Substance | Kd [nM]
ICOS 3'-UTR tandem cis-element (nt 2183-2271) | 11.3
Ox40 3'-UTR tandem element (nt 1064-1126) | 10.7

From PMC5775257
